Biological target: AhR (baculovirus);Arnt (baculovirus) (human;human, UniProt P35869;P27540 1-848;1-789, |)
Assay: EMSA

Chain of AhR (baculovirus);Arnt (baculovirus) (P35869 whole entry, chain 1 of 2): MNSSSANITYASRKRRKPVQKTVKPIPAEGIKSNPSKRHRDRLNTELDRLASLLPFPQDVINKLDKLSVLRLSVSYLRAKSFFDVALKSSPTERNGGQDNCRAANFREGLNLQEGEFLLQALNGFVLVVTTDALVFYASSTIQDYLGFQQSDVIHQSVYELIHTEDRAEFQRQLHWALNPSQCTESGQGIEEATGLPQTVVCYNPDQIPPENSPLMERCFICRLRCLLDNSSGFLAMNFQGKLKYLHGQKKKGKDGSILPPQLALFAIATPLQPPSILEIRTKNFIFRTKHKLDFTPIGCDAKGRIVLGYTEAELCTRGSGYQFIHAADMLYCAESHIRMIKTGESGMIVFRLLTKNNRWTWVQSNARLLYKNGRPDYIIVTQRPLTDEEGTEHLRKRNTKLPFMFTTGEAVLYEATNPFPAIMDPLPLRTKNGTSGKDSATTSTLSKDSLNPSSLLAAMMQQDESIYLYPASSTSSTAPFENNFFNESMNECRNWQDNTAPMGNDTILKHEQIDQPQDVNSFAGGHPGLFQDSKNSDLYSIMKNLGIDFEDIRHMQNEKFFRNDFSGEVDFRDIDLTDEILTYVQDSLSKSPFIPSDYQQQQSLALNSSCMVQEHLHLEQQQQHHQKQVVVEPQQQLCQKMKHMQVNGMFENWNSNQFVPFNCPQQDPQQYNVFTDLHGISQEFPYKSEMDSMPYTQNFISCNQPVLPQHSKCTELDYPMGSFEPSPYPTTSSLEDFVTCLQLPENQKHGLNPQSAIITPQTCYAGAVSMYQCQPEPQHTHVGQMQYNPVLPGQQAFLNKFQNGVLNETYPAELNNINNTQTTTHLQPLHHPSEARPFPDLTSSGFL
Chain of AhR (baculovirus);Arnt (baculovirus) (P27540 whole entry, chain 2 of 2): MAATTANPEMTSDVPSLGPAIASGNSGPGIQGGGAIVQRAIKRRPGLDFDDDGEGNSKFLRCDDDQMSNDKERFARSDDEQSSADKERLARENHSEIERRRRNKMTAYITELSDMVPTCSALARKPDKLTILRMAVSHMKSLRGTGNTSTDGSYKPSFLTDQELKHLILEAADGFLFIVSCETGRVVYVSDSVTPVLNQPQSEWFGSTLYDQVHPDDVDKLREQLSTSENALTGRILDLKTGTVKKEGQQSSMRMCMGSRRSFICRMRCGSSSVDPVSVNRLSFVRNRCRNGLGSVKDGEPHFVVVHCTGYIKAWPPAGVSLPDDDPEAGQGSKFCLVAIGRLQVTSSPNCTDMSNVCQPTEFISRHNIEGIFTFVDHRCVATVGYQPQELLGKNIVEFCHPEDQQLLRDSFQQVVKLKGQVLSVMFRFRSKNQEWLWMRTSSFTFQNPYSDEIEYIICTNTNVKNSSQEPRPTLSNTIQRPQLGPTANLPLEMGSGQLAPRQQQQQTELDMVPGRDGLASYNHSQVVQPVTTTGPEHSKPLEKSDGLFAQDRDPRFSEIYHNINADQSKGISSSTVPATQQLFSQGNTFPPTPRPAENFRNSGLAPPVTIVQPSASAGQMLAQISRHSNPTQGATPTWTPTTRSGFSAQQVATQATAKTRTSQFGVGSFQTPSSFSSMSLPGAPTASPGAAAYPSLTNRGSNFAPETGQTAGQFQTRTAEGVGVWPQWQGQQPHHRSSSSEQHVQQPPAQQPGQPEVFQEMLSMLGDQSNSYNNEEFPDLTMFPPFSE

B1: DRE gel shift probe (OL439/OL440) (dsDNA)
DNA 1: TCGAGTAGATCACGCAATGGGCCCAGC
DNA 2: TCGAGCTGGGCCCATTGCGTGATCTAC
B1: binds.
